Experiment in all cases: glycopeptide array
One test concerns the target T1, T4 (Tn-MUC1) (PAPGSTAPPAHGVT(α-GalNAc)SAPDTRPAPG-OH).
T1 peptide: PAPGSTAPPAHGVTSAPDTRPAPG

A further test addresses T2, T11 (Tn-MUC1) (PAPGSTAPPAHGVT(α-GalNAc)SAPDT(α-GalNAc)RPAPG-OH).
T2 peptide: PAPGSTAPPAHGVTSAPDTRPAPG

For another test, the target named is T3, T3 (Tn-MUC1) (PAPGST(α-GalNAc)APPAHGVTSAPDTRPAPG-OH).
T3 peptide: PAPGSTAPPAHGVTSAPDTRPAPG

A further test addresses T4, T8 (Tn-MUC1) (PAPGST(α-GalNAc)APPAHGVTSAPDT(α-GalNAc)RPAPG-OH).
T4 peptide: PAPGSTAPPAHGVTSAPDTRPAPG

In another test the target is T5, T9 (Tn-MUC1) (PAPGSTAPPAHGVT(α-GalNAc)S(α-GalNAc)APDTRPAPG-OH).
T5 peptide: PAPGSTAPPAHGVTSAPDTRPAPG

The target in another test is T6, S4 (sTn-MUC1) (PAPGSTAPPAHGVT(Neu5Ac-α(2-6)-GalNAc)SAPDTRPAPG-OH).
T6 peptide: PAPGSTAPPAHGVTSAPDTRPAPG

In the next test the target is T7, S11 (sTn-MUC1) (PAPGSTAPPAHGVT(Neu5Ac-α(2-6)-GalNAc)SAPDT(Neu5Ac-a(2-6)-GalNAc)RPAPG-OH).
T7 peptide: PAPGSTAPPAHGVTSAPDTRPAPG

For a further test, the target named is T8, S9 (sTn-MUC1) (PAPGSTAPPAHGVT(Neu5Ac-α(2-6)-GalNAc)S(Neu5Ac-a(2-6)-GalNAc)APDTRPAPG-OH).
T8 peptide: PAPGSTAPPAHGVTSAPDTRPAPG

For another test, the target named is T9, T7 (Tn-MUC1) (PAPGS(α-GalNAc)T(α-GalNAc)APPAHGVTSAPDTRPAPG-OH).
T9 peptide: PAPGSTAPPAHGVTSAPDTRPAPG

B1: 25 (antibody, V domains shown)
VH: QVQLVESGAEVKKPGASVKVSCKASGYTFARYYVHWVRQAPGQGLEWMGLINPYGGATNYAQNFQGRVTMTRDTSTSTVYMELSSLRSEDTAVYYCARDAMGGDSYFDYWGQGTLVTVSS
Broadly, the EC50 is the midpoint of the concentration-response curve. Higher therefore signals lower potency in that assay. As for B1, the EC50 in the test with T4 (Tn-MUC1) worked out at 0.1 µg/mL; with T11 (Tn-MUC1) it was 0.129 µg/mL; with T3 (Tn-MUC1) it was 38.6 µg/mL; in the test with T8 (Tn-MUC1) it was 0.113 µg/mL; in the test with T9 (Tn-MUC1), 0.119 µg/mL.

B2: SEQ ID NO 9 (bivalent monospecific MUC1 IgG) (antibody, V domains shown)
VH: QVQLVQSGAEVKKPGASVKVSCKASGYTFNRHYIQWVRQAPGQGLEWMGTINPYDGSTHYAQKFQGRVTLTRDTSTTTVYMELSSLRSEDTAVYYCARDYMIGYVVFDYWGQGTLVTVSS
VL: not shown
Consider B2, for which the 50% effective concentration (EC50) with S4 (sTn-MUC1) was 0.031 µg/mL; with S11 (sTn-MUC1) it was 0.053 µg/mL; in the test with S9 (sTn-MUC1), 0.046 µg/mL; in the test with T7 (Tn-MUC1), 64 µg/mL; with T4 (Tn-MUC1), 0.031 µg/mL; in the test with T11 (Tn-MUC1), 0.041 µg/mL. Moreover, the EC50 with T3 (Tn-MUC1) came out at 21.6 µg/mL; with T8 (Tn-MUC1) it was 0.034 µg/mL; with T9 (Tn-MUC1), 0.039 µg/mL.

B3: SEQ ID NO 5 (bivalent monospecific MUC1 IgG) (antibody, V domains shown)
VH: QVQLVQSGAEVKKPGASVKVSCKTSGYTFTRYYIQWVRQAPGQGLEWMGVINPYDGSTNYAQKFQGRVTVTRDTSTFTVYMELSSLRSEDTAVYYCARDYMRGYVIFDYWGQGTLVTVSS
VL: not shown
Take B3: the 50% effective concentration (EC50) was found to be 0.12 µg/mL in the test with S4 (sTn-MUC1); 0.296 µg/mL with S11 (sTn-MUC1); 0.137 µg/mL in the test with S9 (sTn-MUC1); 0.116 µg/mL with T4 (Tn-MUC1); 0.127 µg/mL with T11 (Tn-MUC1); 0.123 µg/mL in the test with T8 (Tn-MUC1). The half-maximal effective concentration (EC50) in the test with T9 (Tn-MUC1) came to 0.113 µg/mL.

B4: 106 (antibody, V domains shown)
VH: QVQLVQSGAEMKKPGASVKISCKASGYTFTNYYIQWVRQAPGQGLEWMGVINPYDGSTNYAQRFQGRVTLTRDTSTTTVYMELSSLRSEDTAVYYCARDYMIGYVVFDFWGQGTLVTVSS
In the case of B4, the 50% effective concentration (EC50) with T4 (Tn-MUC1) stood at 0.037 µg/mL; in the test with T11 (Tn-MUC1) it was 0.043 µg/mL; with T3 (Tn-MUC1), 99.3 µg/mL; in the test with T8 (Tn-MUC1) it was 0.036 µg/mL; in the test with T9 (Tn-MUC1) it was 0.032 µg/mL.

B5: SEQ ID NO 45 (bivalent monospecific MUC1 IgG) (antibody, V domains shown)
VH: QVQLVESGTEVKKPGASVKVSCKASGYSFIHYYIHWVRQAPGRGLEWMGVINPFDGSTNSAQNFQGRVTVTRDTSTSTVFMDLSSLRSEDTAVYYCARDNMLGYVLFDHWGQGTLVTVSS
VL: not shown
B5: the 50% effective concentration (EC50) with S4 (sTn-MUC1) was determined as 0.089 µg/mL; with S11 (sTn-MUC1), 4.06 µg/mL; in the test with S9 (sTn-MUC1) it was 0.135 µg/mL; with T4 (Tn-MUC1), 0.084 µg/mL; in the test with T11 (Tn-MUC1) it was 0.093 µg/mL; with T3 (Tn-MUC1) it was 52.2 µg/mL. Besides, the figures for the EC50 with T8 (Tn-MUC1) and with T9 (Tn-MUC1) were 0.088 µg/mL and 0.083 µg/mL, respectively.

B6: 90 (antibody, V domains shown)
VH: QVQLVQSGAEVKKPGASVKVSCKASGYTFINHYIHWVRQAPGQGLEWMGVINPFDGSTNYAQKFQGRVTVTRDTSTSTVFLDLSSLRSEDTAVYYCARDNMIGYVLFDYWGQGTLVTVSS
On to B6, for which the EC50 came to 0.126 µg/mL with S4 (sTn-MUC1); 67.4 µg/mL with S11 (sTn-MUC1); 0.207 µg/mL in the test with S9 (sTn-MUC1); 0.118 µg/mL in the test with T4 (Tn-MUC1); 0.126 µg/mL in the test with T11 (Tn-MUC1); 0.12 µg/mL with T8 (Tn-MUC1). In the test with T9 (Tn-MUC1), this molecule returned an EC50 of 0.102 µg/mL.

B7: SEQ ID NO 57 (bivalent monospecific MUC1 IgG) (antibody, V domains shown)
VH: QVQLVESGTEVKKPGASVKVSCKASGYSFIHYYIHWVRQAPGRGLEWMGVINPFDGSTNYAQNFQGRVTVTRDTSTSTVFMDLSSLRSEDTAVYYCARDNMIGYVLFDHWGQGTLVTVSS
VL: not shown
Turning to B7, the EC50 in the test with S4 (sTn-MUC1) amounted to 0.119 µg/mL; in the test with S11 (sTn-MUC1) it was 0.939 µg/mL; with S9 (sTn-MUC1) it was 0.16 µg/mL; with T4 (Tn-MUC1), 0.112 µg/mL; with T11 (Tn-MUC1), 0.123 µg/mL; in the test with T8 (Tn-MUC1) it was 0.114 µg/mL. Further, a half-maximal response with T9 (Tn-MUC1) (EC50) required 0.109 µg/mL.

B8: SEQ ID NO 78 (bivalent monospecific MUC1 IgG) (antibody, V domains shown)
VH: QVQLVQSGAEVKKPGTSVKVSCKASGYSFIHYYIHWVRQAPGQGLEWVGVINPFDGSTNYAQKFQGRVTVTRDTSTSAVFMDLSSLRSEDTAVYYCARDNMIGYVLFDYWGQGTLVTVSS
VL: not shown
Regarding B8, the concentration giving a half-maximal response (EC50) with S4 (sTn-MUC1) worked out at 0.039 µg/mL; with S11 (sTn-MUC1), 0.477 µg/mL; in the test with S9 (sTn-MUC1), 0.067 µg/mL; in the test with T4 (Tn-MUC1) it was 0.034 µg/mL; with T11 (Tn-MUC1), 0.041 µg/mL; in the test with T3 (Tn-MUC1), 37.9 µg/mL. For the same molecule, the EC50 with T8 (Tn-MUC1) and with T9 (Tn-MUC1) was 0.032 µg/mL throughout.

Source of the values: patent US20230250190A1 (published 2023).
